According to the Human Domainome abundance scans (Beltran et al. 2025):
± gives the uncertainty stated by the source.

B1: Homeobox protein SIX3, residues 212 to 262; numbered along this chain, O95343 (parent)
chain: CFKERTRSLLREWYLQDPYPNPSKKRELAQATGLTPTQVGNWFKNRRQRDR

Variants of: B1
Assay: abundance fitness (aPCA) (normalised: wild type 0, dead -1); higher = more abundant; growth selection in yeast, the domain comes from the species named
Details: Homo sapiens

Variant	abundance fitness
CFKERTRSLLREWYLQDPYPNPSKKRELAWATGLTPTQVGNWFKNRRQRDR [Q30W]	-0.097 ± 0.072
CFKERTRSLLREWYLQDPYPNPSKKRELANATGLTPTQVGNWFKNRRQRDR [Q30N]	0.114 ± 0.09
CFKERTRSLLREWYLQDPYPNPSKKRELARATGLTPTQVGNWFKNRRQRDR [Q30R]	-0.329 ± 0.05
CFKERTRSLLREWYLQDPYPNPSKKRELACATGLTPTQVGNWFKNRRQRDR [Q30C]	-0.243 ± 0.039
CFKERTRSLLREWYLQDPYPNPSKKRELADATGLTPTQVGNWFKNRRQRDR [Q30D]	0.037 ± 0.084
CFKERTRSLLREWYLQDPYPNPSKKRELAEATGLTPTQVGNWFKNRRQRDR [Q30E]	-0.068 ± 0.094
CFKERTRSLLREWYLQDPYPNPSKKRELAFATGLTPTQVGNWFKNRRQRDR [Q30F]	-0.284 ± 0.065
CFKERTRSLLREWYLQDPYPNPSKKRELALATGLTPTQVGNWFKNRRQRDR [Q30L]	-0.139 ± 0.045
CFKERTRSLLREWYLQDPYPNPSKKRELAAATGLTPTQVGNWFKNRRQRDR [Q30A]	-0.19 ± 0.059
CFKERTRSLLREWYLQDPYPNPSKKRELAVATGLTPTQVGNWFKNRRQRDR [Q30V]	-0.163 ± 0.054
CFKERTRSLLREWYLQDPYPNPSKKRELAYATGLTPTQVGNWFKNRRQRDR [Q30Y]	-0.314 ± 0.099
CFKERTRSLLREWYLQDPYPNPSKKRELAPATGLTPTQVGNWFKNRRQRDR [Q30P]	-0.93 ± 0.15
CFKERTRSLLREWYLQDPYPNPSKKRELAIATGLTPTQVGNWFKNRRQRDR [Q30I]	0.228 ± 0.087
CFKERTRSLLREWYLQDPYPNPSKKRELAHATGLTPTQVGNWFKNRRQRDR [Q30H]	-0.149 ± 0.048
CFKERTRSLLREWYLQDPYPNPSKKRELASATGLTPTQVGNWFKNRRQRDR [Q30S]	-0.044 ± 0.039
CFKERTRSLLREWYLQDPYPNPSKKRELAGATGLTPTQVGNWFKNRRQRDR [Q30G]	-0.166 ± 0.05
CFKERTRSLLREWYLQDPYPNPSKKRWLAQATGLTPTQVGNWFKNRRQRDR [E27W]	-0.678 ± 0.083
CFKERTRSLLREWYLQDPYPNPSKKRERAQATGLTPTQVGNWFKNRRQRDR [L28R]	-0.895 ± 0.091
CFKERTRSLLREWYLQDPYPNPSKKREIAQATGLTPTQVGNWFKNRRQRDR [L28I]	-0.162 ± 0.14
CFKERTRSLLREWYLQDPYPNPSKKREQAQATGLTPTQVGNWFKNRRQRDR [L28Q]	-0.872 ± 0.11
CFKERTRSLLREWYLQDPYPNPSKKREYAQATGLTPTQVGNWFKNRRQRDR [L28Y]	0.069 ± 0.095
CFKERTRSLLREWYLQDPYPNPSKKRETAQATGLTPTQVGNWFKNRRQRDR [L28T]	-0.876 ± 0.24
CFKERTRSLLREWYLQDPYPNPSKKREEAQATGLTPTQVGNWFKNRRQRDR [L28E]	-1.04 ± 0.28
CFKERTRSLLREWYLQDPYPNPSKKREFAQATGLTPTQVGNWFKNRRQRDR [L28F]	-0.07 ± 0.067
CFKERTRSLLREWYLQDPYPNPSKKREKAQATGLTPTQVGNWFKNRRQRDR [L28K]	-0.668 ± 0.095
CFKERTRSLLREWYLQDPYPNPSKKREVAQATGLTPTQVGNWFKNRRQRDR [L28V]	-0.147 ± 0.079

Variant	abundance fitness
CFKERTRSLLREWYLQDPYPNPSKKREWAQATGLTPTQVGNWFKNRRQRDR [L28W]	-0.572 ± 0.056
CFKERTRSLLREWYLQDPYPNPSKKREDAQATGLTPTQVGNWFKNRRQRDR [L28D]	-0.805 ± 0.22
CFKERTRSLLREWYLQDPYPNPSKKREMAQATGLTPTQVGNWFKNRRQRDR [L28M]	0.029 ± 0.054
CFKERTRSLLREWYLQDPYPNPSKKRECAQATGLTPTQVGNWFKNRRQRDR [L28C]	-0.59 ± 0.045
CFKERTRSLLREWYLQDPYPNPSKKRESAQATGLTPTQVGNWFKNRRQRDR [L28S]	-0.833 ± 0.11
CFKERTRSLLREWYLQDPYPNPSKKREAAQATGLTPTQVGNWFKNRRQRDR [L28A]	-1.05 ± 0.27
CFKERTRSLLREWYLQDPYPNPSKKRENAQATGLTPTQVGNWFKNRRQRDR [L28N]	-0.99 ± 0.16
CFKERTRSLLREWYLQDPYPNPSKKREHAQATGLTPTQVGNWFKNRRQRDR [L28H]	-0.778 ± 0.26
CFKERTRSLLREWYLQDPYPNPSKKRELAQAIGLTPTQVGNWFKNRRQRDR [T32I]	-0.591 ± 0.14
CFKERTRSLLREWYLQDPYPNPSKKRELAQAFGLTPTQVGNWFKNRRQRDR [T32F]	-0.922 ± 0.26
CFKERTRSLLREWYLQDPYPNPSKKRELAQAEGLTPTQVGNWFKNRRQRDR [T32E]	-0.908 ± 0.061
CFKERTRSLLREWYLQDPYPNPSKKRELAQAHGLTPTQVGNWFKNRRQRDR [T32H]	0.036 ± 0.29
CFKERTRSLLREWYLQDPYPNPSKKRELAQASGLTPTQVGNWFKNRRQRDR [T32S]	-0.43 ± 0.059
CFKERTRSLLREWYLQDPYPNPSKKRELAQANGLTPTQVGNWFKNRRQRDR [T32N]	-0.637 ± 0.2
CFKERTRSLLREWYLQDPYPNPSKKRELAQALGLTPTQVGNWFKNRRQRDR [T32L]	-0.409 ± 0.072
CFKERTRSLLREWYLQDPYPNPSKKRELAQAVGLTPTQVGNWFKNRRQRDR [T32V]	-0.257 ± 0.072
CFKERTRSLLREWYLQDPYPNPSKKRELAQAKGLTPTQVGNWFKNRRQRDR [T32K]	-1.02 ± 0.18
CFKERTRSLLREWYLQDPYPNPSKKRELAQAGGLTPTQVGNWFKNRRQRDR [T32G]	-0.903 ± 0.11
CFKERTRSLLREWYLQDPYPNPSKKRELAQAYGLTPTQVGNWFKNRRQRDR [T32Y]	-1 ± 0.19
CFKERTRSLLREWYLQDPYPNPSKKRELAQARGLTPTQVGNWFKNRRQRDR [T32R]	-0.87 ± 0.1
CFKERTRSLLREWYLQDPYPNPSKKRELAQAAGLTPTQVGNWFKNRRQRDR [T32A]	-0.399 ± 0.079
CFKERTRSLLREWYLQDPYPNPSKKRELAQADGLTPTQVGNWFKNRRQRDR [T32D]	-0.96 ± 0.12
CFKERTRSLLREWYLQDPYPNPSKKRELAQAWGLTPTQVGNWFKNRRQRDR [T32W]	-0.821 ± 0.11
CFKERTRSLLREWYLQDPYPNPSKKRELAQAMGLTPTQVGNWFKNRRQRDR [T32M]	-0.59 ± 0.11
CFKERTRSLLREWYLQDPYPNPSKKRELAQAPGLTPTQVGNWFKNRRQRDR [T32P]	-0.802 ± 0.2
